# Laboratory results published in article PMC10911789.
# Biological target: recombinant spike glycoprotein RBD from SARS-CoV-2 (BEI Resources NR-52366) (SARS-CoV-2) (UniProt P0DTC2)
# Assay: BLI
# Chain of recombinant human GAPDH (glyceraldehyde-3-phosphate dehydrogenase), P04406 1-335 (enzyme; other documents disagree on this pair) (P04406 whole entry): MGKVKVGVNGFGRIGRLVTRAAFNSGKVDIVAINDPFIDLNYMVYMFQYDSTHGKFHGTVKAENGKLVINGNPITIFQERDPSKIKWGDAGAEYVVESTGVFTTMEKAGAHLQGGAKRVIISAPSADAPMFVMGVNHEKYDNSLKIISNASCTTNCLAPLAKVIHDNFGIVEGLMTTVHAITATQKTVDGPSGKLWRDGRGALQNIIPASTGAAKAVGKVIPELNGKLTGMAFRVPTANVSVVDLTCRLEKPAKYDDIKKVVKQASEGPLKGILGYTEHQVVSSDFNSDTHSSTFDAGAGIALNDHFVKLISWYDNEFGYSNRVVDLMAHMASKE
substance,measurement,value
"recombinant human GAPDH (glyceraldehyde-3-phosphate dehydrogenase), P04406 1-335 (enzyme; other documents disagree on this pair)",Kd,11.8 nM
